Reference: patent US6440461B1, “Poly(methylidene malonate) microspheres, preparation method and pharmaceutical compositions containing them” (Virsol, priority 1998, dated 2002)

Test system: C3H mice
Experiment: Oral tolerance induction: survival of mice after sensitisation to ovalbumin by subcutaneous injection
Assay type: in vivo
Conditions: 100 micrograms ovalbumin per mouse per day over 5 consecutive days, last dose 7 days before s.c. sensitisation with free ovalbumin (100 micrograms per mouse) on D0 and D14
Description: This preparation is administered via the oral route to C3H mice at the dose of 100 micrograms of encapsulated ovalbumin (per mouse per day) over 5 consecutive days. The last oral administration took place 7 days before the sensitisation of the animals to ovalbumin which is carried out by subcutaneous injection of free ovalbumin (100 micrograms per mouse) on days DO and D14. 90% of the mice survive the second injection while less than 30% of the mice administered with the microspheres without ovalbumin or with the same dose of non-encapsulated ovalbumin survive.

B1: ovalbumin (protein, UniProt P01012 2-386, looked up)
Ovalbumin: GSIGAASMEFCFDVFKELKVHHANENIFYCPIAIMSALAMVYLGAKDSTRTQINKVVRFDKLPGFGDSIEAQCGTSVNVHSSLRDILNQITKPNDVYSFSLASRLYAEERYPILPEYLQCVKELYRGGLEPINFQTAADQARELINSWVESQTNGIIRNVLQPSSVDSQTAMVLVNAIVFKGLWEKAFKDEDTQAMPFRVTEQESKPVQMMYQIGLFRVASMASEKMKILELPFASGTMSMLVLLPDEVSGLEQLESIINFEKLTEWTSSNVMEERKIKVYLPRMKMEEKYNLTSVLMAMGITDVFSSSANLSGISSAESLKISQAVHAAHAEINEAGREVVGSAEAGVDAASVSEEFRADHPFLFCIKHIATNAVLFFGRCVSP
- mice surviving the second injection of free ovalbumin: less than 30%
